Experimental data taken from paper PMC3713010, “Sox2 Transcriptionally Regulates Pqbp1, an Intellectual Disability-Microcephaly Causative Gene, in Neural Stem Progenitor Cells”.

Assays:
Experiment in all cases: EMSA; 10% glycerol, 20 mM HEPES pH 7.8, 45 mM KCl, 10 mM NaCl, 1 mM EDTA, 1 mM DTT, 0.2 ug/uL BSA, 0.1% NP-40, 50 ng poly-dIdC; 20 ng each GST protein; room temperature 30 min (heterodimers 4 C); 6% PAGE 0.25x TBE
Details in all cases: protein: recombinant; tags: GST (N-terminal, pGEX-6P-1); label: 32P-dCTP fill-in of the 5' (dG)5 overhangs of both strands (Methods; control probes are given with GGG)
[1] = molecular target: T1, Brn2 DNA-binding domain (BD-Brn2) (Mus musculus (B6), UniProt P31360 336-435)
T1 sequence: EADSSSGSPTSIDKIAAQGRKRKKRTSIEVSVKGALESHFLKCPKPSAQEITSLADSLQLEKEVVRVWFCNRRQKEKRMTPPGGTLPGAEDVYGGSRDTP
How it was run: (§1)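 Transcription factor DNA-binding domains carrying a GST tag were expressed in E. coli BL21, purified on glutathione-sepharose and tested against annealed candidate cis-element oligonucleotides labelled with 32P-dCTP. Each reaction held 20 ng protein, 40,000–50,000 cpm probe and 50 ng poly-dIdC in HEPES/KCl glycerol buffer with BSA and detergent, incubated 30 min at room temperature, then run on 6% polyacrylamide in 0.25×TBE at 4°C. DNA binding was scored as the radioactivity of the band in the expected shift region, read on a phosphor imager.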

[2] = molecular target: Pax6 DNA-binding domain (BD-Pax6) (Mus musculus (B6), UniProt P63015 190-289)
Pax6 DNA-binding domain (BD-Pax6), sequence (P63015 190-289): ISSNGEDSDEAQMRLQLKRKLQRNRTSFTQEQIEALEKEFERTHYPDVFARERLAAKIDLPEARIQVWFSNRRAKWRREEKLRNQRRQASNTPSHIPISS
How it was run: as §1

[3] = molecular target: T2, Oct6 DNA-binding domain (BD-Oct6) (Mus musculus (B6), UniProt P21952 317-416)
T2 sequence: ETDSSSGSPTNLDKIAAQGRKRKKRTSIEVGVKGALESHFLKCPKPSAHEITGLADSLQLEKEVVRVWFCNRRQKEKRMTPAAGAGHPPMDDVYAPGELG
How it was run: as §1

B1: 124 (dsDNA)
DNA 1: GGGGGCTTATGCTTCTATTCTACACAATTCCACAACCCCCC
DNA 2: GGGGGGTTGTGGAATTGTGTAGAATAGAAGCATAAGCCCCC
B1: no binding [1]; no binding [2]; no binding [3].

B2: 126 (dsDNA)
DNA 1: GGGGGAATGTTGTCATAATTGAAAAAGACAAAGCACTAATCCCCC
DNA 2: GGGGGATTAGTGCTTTGTCTTTTTCAATTATGACAACATTCCCCC
B2: binds [1]; binds [2]; binds [3].

B3: 127 (dsDNA)
DNA 1: GGGGGTTTTGTTTTTTGTTTAAAGCAATAACATATTCAGCCCCC
DNA 2: GGGGGCTGAATATGTTATTGCTTTAAACAAAAAACAAAACCCCC
B3: binds [1]; binds [2]; binds [3].

B4: 120 (dsDNA)
DNA 1: GGGGGTCCACACTCTATAATCTCACATTGTTTGGCACCCCCCC
DNA 2: GGGGGGGTGCCAAACAATGTGAGATTATAGAGTGTGGACCCCC
B4: no binding [1]; no binding [2]; binds [3].

B5: 3 (dsDNA)
DNA 1: GGGGGACCTATACTTTGTTTTTATTGCCTAGTAATCCCCC
DNA 2: GGGGGATTACTAGGCAATAAAAACAAAGTATAGGTCCCCC
B5: no binding [1]; no binding [2]; no binding [3].

B6: 119 (dsDNA)
DNA 1: GGGGGCCGATCGCTTTGTTCTACATTTTATGTTCTATCCCCC
DNA 2: GGGGGATAGAACATAAAATGTAGAACAAAGCGATCGGCCCCC
B6: no binding [1]; no binding [2]; no binding [3].

B7: 121 (dsDNA)
DNA 1: GGGGGGTGCTCAATTTGTGTTAGCTATTACTAGCAAGTCATTAACTCACCCCCC
DNA 2: GGGGGGTGAGTTAATGACTTGCTAGTAATAGCTAACACAAATTGAGCACCCCCC
B7: binds [1]; binds [2]; binds [3].

B8: 12 (dsDNA)
DNA 1: GGGGGAGTATGAGTTTGTATATGTTGATTAACCAAACACTCCCCC
DNA 2: GGGGGAGTGTTTGGTTAATCAACATATACAAACTCATACTCCCCC
B8: binds [1]; no binding [2]; no binding [3].

B9: 123 (dsDNA)
DNA 1: GGGGGAGTGCTATTTTGTCGAGAAATTGTAGAAGACACCCCC
DNA 2: GGGGGTGTCTTCTACAATTTCTCGACAAAATAGCACTCCCCC
B9: no binding [1]; no binding [2]; no binding [3].

B10: 122 (dsDNA)
DNA 1: GGGGGGAAAAGGATTTGTACTTAAATAAGCACCTGGCCCCCC
DNA 2: GGGGGGCCAGGTGCTTATTTAAGTACAAATCCTTTTCCCCCC
B10: binds [1]; no binding [2]; binds [3].

B11: 125 (dsDNA)
DNA 1: GGGGGGGGATGCAATTGTCAGTCACCTTTCTTGAGCCTGTGGGACCCCC
DNA 2: GGGGGTCCCACAGGCTCAAGAAAGGTGACTGACAATTGCATCCCCCCCC
B11: binds [1]; no binding [2]; binds [3].

B12: 128 (dsDNA)
DNA 1: GGGGGAATATCAGTGTAATGATTAACAGACAATGGCAGAGGCCCCC
DNA 2: GGGGGCCTCTGCCATTGTCTGTTAATCATTACACTGATATTCCCCC
B12: no binding [1]; binds [2]; no binding [3].
